To fix the notation:
B5: biotinylated Avi-UPF2-MIF4GIII (domain or fragment, UniProt Q9HAU5 761-1054, looked up)
chain: EKTVKKKRPPLQEYVRKLLYKDLSKVTTEKVLRQMRKLPWQDQEVKDYVICCMINIWNVKYNSIHCVANLLAGLVLYQEDVGIHVVDGVLEDIRLGMEVNQPKFNQRRISSAKFLGELYNYRMVESAVIFRTLYSFTSFGVNPDGSPSSLDPPEHLFRIRLVCTILDTCGQYFDRGSSKRKLDCFLVYFQRYVWWKKSLEVWTKDHPFPIDIDYMISDTLELLRPKIKLCNSLEESIRQVQDLEREFLIKLGLVNDKDSKDSMTEGENLEEDEEEEEGGAETEEQSGNESEVNE
modifications: biotin on the Avi tag (BirA)
notes: UPF2, third middle-domain of eukaryotic initiation factor 4G (MIF4GIII), residues 761-1054; Avi tag added by site-directed mutagenesis to UPF2-MIF4GIII; also called immobilized UPF2-MIF4GIII; source: E. coli BL21 Rosetta2(DE3), purified (Ni-NTA, TEV, reverse IMAC, ion exchange); biotinylated with BirA, SEC

The target of one data set is T1, UPF3B-WT (human, UniProt Q9BZI7-2 1-470).
T1 sequence: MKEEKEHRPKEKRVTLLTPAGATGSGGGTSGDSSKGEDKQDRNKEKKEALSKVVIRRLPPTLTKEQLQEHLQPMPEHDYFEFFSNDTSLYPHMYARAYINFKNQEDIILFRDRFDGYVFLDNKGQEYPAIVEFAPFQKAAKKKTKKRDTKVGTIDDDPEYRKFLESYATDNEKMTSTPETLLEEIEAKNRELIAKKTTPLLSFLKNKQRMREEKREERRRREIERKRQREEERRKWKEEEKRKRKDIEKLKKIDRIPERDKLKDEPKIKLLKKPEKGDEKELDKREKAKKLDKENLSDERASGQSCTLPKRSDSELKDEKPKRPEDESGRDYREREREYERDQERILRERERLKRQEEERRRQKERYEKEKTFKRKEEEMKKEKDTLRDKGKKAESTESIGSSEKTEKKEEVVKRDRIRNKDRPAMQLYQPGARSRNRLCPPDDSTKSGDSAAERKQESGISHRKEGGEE
Briefly: fluorescence anisotropy; FA: 5 nM probe, 150 mM NaCl, 25 mM HEPES pH 7.45, 1 mM TCEP, 20 C; EMSA: 250 nM probe, 25 mM HEPES pH 7.45, 2 mM MgCl2, 150 mM NaCl, 0.5 mM TCEP, on ice. The following applies: protein: recombinant, tags: 6xHis removed by TEV. In general terms: Fluorescence polarisation rises when a labelled molecule tumbles more slowly, as on binding a larger partner.

Data set [1] deals with B5. The data set can be described thus: SPR; 350 RU biotinylated Avi-UPF2-MIF4GIII immobilised on an SA chip (Biacore T200); UPF3B and UPF3A constructs injected; 15°C; 300 mM NaCl, 25 mM HEPES pH 7.4, 0.25 mM TCEP, 0.05% Tween-20; global fit, 1:1 binding model. The following applies: both partners purified. (SPR reads the build-up and loss of mass on a sensor chip optically.)

A further data set deals with T2, UPF3A-WT (human, UniProt Q9H1J1 1-476).
T2 construct: UPF3A, human, full length; The cloning of UPF3A-WT is not described in the methods; also called full-length UPF3A-WT; source: insect cells (MultiBac), purified (Ni-NTA, TEV, reverse IMAC, ion exchange)
T2 sequence (looked up): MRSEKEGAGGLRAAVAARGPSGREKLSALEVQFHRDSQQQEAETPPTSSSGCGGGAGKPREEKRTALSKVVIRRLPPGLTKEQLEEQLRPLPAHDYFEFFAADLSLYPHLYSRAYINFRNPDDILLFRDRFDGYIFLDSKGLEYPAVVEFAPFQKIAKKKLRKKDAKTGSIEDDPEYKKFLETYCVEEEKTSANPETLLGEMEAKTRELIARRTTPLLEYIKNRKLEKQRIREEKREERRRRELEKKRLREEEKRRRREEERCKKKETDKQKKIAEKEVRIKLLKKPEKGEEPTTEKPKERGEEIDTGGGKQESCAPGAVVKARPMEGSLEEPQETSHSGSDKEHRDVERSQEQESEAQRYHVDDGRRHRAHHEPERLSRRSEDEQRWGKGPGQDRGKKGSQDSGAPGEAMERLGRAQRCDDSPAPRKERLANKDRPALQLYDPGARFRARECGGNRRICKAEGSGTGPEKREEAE
The data set is described as above. The following applies: both partners purified.

The target in data set [2] is T3, UPF3B-WT (residues 1–470) (human, UniProt Q9BZI7-2 1-470).
T3 construct: UPF3B, human, isoform 2 (the predominant form found in cells), residues 1-470, printed length 470; also called full-length UPF3B; source: insect cells (MultiBac), purified (Ni-NTA, TEV, reverse IMAC, ion exchange)
T3 sequence (looked up): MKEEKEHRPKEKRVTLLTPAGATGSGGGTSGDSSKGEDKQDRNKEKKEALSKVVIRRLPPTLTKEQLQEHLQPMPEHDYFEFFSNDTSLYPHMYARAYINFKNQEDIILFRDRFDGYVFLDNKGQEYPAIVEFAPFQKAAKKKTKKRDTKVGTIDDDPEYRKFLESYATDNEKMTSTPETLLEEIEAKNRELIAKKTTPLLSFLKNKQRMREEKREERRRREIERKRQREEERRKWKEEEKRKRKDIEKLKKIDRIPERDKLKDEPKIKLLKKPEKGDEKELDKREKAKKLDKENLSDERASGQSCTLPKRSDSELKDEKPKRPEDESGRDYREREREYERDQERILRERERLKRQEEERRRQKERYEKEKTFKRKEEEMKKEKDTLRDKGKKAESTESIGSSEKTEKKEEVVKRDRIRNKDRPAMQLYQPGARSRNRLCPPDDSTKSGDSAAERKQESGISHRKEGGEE
Described as above. Conditions: both partners purified.

Usually Kd stands for the concentration at which binding is half-saturated.

For CCCTGAGCTGACGCAGCACCTGGG (ssDNA) [24mer ssDNA], the Kd in the data set with UPF3B-WT (label: 5' HEX, single strand) was 190 nM.

B1: UPF3A-58–206-Iso1 (domain or fragment, human, UniProt Q9H1J1 58-206, looked up)
chain: KPREEKRTALSKVVIRRLPPGLTKEQLEEQLRPLPAHDYFEFFAADLSLYPHLYSRAYINFRNPDDILLFRDRFDGYIFLDSKGLEYPAVVEFAPFQKIAKKKLRKKDAKTGSIEDDPEYKKFLETYCVEEEKTSANPETLLGEMEAKT
notes: Codon-optimized for E. coli, gene-synthesized; also called UPF3A-58–208 (as printed once); source: E. coli BL21 Rosetta2(DE3), purified (Ni-NTA, TEV, reverse IMAC, ion exchange)
In turn, B1 registered a Kd in data set [1] of 0.22 nM.

B2: UPF3A-58–206-NOPS* C185A-V186T-E187D (domain or fragment, human, UniProt Q9H1J1 58-206, looked up)
chain: KPREEKRTALSKVVIRRLPPGLTKEQLEEQLRPLPAHDYFEFFAADLSLYPHLYSRAYINFRNPDDILLFRDRFDGYIFLDSKGLEYPAVVEFAPFQKIAKKKLRKKDAKTGSIEDDPEYKKFLETYATDEEKTSANPETLLGEMEAKT
notes: also called NOPS* construct; source: E. coli BL21 Rosetta2(DE3), purified (Ni-NTA, TEV, reverse IMAC, ion exchange)
The molecule B2 came in with a Kd in data set [1] of 2.6 nM.

B3: UPF3A-58–206-RRM* A101S-A102N-L104T (domain or fragment, human, UniProt Q9H1J1 58-206, looked up)
chain: KPREEKRTALSKVVIRRLPPGLTKEQLEEQLRPLPAHDYFEFFSNDTSLYPHLYSRAYINFRNPDDILLFRDRFDGYIFLDSKGLEYPAVVEFAPFQKIAKKKLRKKDAKTGSIEDDPEYKKFLETYCVEEEKTSANPETLLGEMEAKT
notes: also called RRM* construct; source: E. coli BL21 Rosetta2(DE3), purified (Ni-NTA, TEV, reverse IMAC, ion exchange)
In turn, B3 gave a Kd in data set [1] of 0.77 nM.

B4: UPF3B-41–143 (domain or fragment, human, UniProt Q9BZI7 41-143, looked up)
chain: DRNKEKKEALSKVVIRRLPPTLTKEQLQEHLQPMPEHDYFEFFSNDTSLYPHMYARAYINFKNQEDIILFRDRFDGYVFLDNKGQEYPAIVEFAPFQKAAKKK
notes: UPF3B, human, RRM-L domain, residues 41-143; also called RRM-L alone; RRM-L only; source: E. coli BL21 Rosetta2(DE3), purified (Ni-NTA, TEV, reverse IMAC, ion exchange)
As to B4, the dissociation constant (Kd) in data set [1] is 720 nM. B5: the Kd with UPF3A-WT came out at 0.048 nM; in data set [2] it was 0.47 nM.

B6: UPF3B-41–189 (domain or fragment, human, UniProt Q9BZI7 41-189, looked up)
chain: DRNKEKKEALSKVVIRRLPPTLTKEQLQEHLQPMPEHDYFEFFSNDTSLYPHMYARAYINFKNQEDIILFRDRFDGYVFLDNKGQEYPAIVEFAPFQKAAKKKTKKRDTKVGTIDDDPEYRKFLESYATDNEKMTSTPETLLEEIEAKN
notes: UPF3B, human, RRM-L and N-terminal part of the middle-domain (NOPS-L), residues 41-189; also called UPF3B-1–189 (as printed once); source: E. coli BL21 Rosetta2(DE3), purified (Ni-NTA, TEV, reverse IMAC, ion exchange)
In data set [1], B6 returned a Kd of 3.6 nM.

B7: UPF3B-41–189 Y167A (domain or fragment, human, UniProt Q9BZI7 41-189, looked up)
chain: DRNKEKKEALSKVVIRRLPPTLTKEQLQEHLQPMPEHDYFEFFSNDTSLYPHMYARAYINFKNQEDIILFRDRFDGYVFLDNKGQEYPAIVEFAPFQKAAKKKTKKRDTKVGTIDDDPEYRKFLESAATDNEKMTSTPETLLEEIEAKN
notes: UPF3B, human, residues 41-189 with Y167A; source: E. coli BL21 Rosetta2(DE3), purified (Ni-NTA, TEV, reverse IMAC, ion exchange)
Regarding B7, in data set [1], the affinity, expressed as Kd, was 3.3 nM.

B8: UPF3B-41–189 Y167D (domain or fragment, human, UniProt Q9BZI7 41-189, looked up)
chain: DRNKEKKEALSKVVIRRLPPTLTKEQLQEHLQPMPEHDYFEFFSNDTSLYPHMYARAYINFKNQEDIILFRDRFDGYVFLDNKGQEYPAIVEFAPFQKAAKKKTKKRDTKVGTIDDDPEYRKFLESDATDNEKMTSTPETLLEEIEAKN
notes: UPF3B, human, residues 41-189 with Y167D; also called Y167D (phosphomimetic); source: E. coli BL21 Rosetta2(DE3), purified (Ni-NTA, TEV, reverse IMAC, ion exchange)
Turning to B8, the Kd in data set [1] is 7.4 nM.

B9: UPF3B-41–189 Y160D (domain or fragment, human, UniProt Q9BZI7 41-189, looked up)
chain: DRNKEKKEALSKVVIRRLPPTLTKEQLQEHLQPMPEHDYFEFFSNDTSLYPHMYARAYINFKNQEDIILFRDRFDGYVFLDNKGQEYPAIVEFAPFQKAAKKKTKKRDTKVGTIDDDPEDRKFLESYATDNEKMTSTPETLLEEIEAKN
notes: UPF3B, human, residues 41-189 with the disease-causing (XLID) mutation Y160D; Y160D is a patient mutation and is also used as a phosphomimetic; also called UPF3B-Y160D; phosphomimetic/disease mutation; source: E. coli BL21 Rosetta2(DE3), purified (Ni-NTA, TEV, reverse IMAC, ion exchange)
B9: the Kd in data set [1] came out at 140 nM.

B10: UPF3B-41–189 F163A (domain or fragment, human, UniProt Q9BZI7 41-189, looked up)
chain: DRNKEKKEALSKVVIRRLPPTLTKEQLQEHLQPMPEHDYFEFFSNDTSLYPHMYARAYINFKNQEDIILFRDRFDGYVFLDNKGQEYPAIVEFAPFQKAAKKKTKKRDTKVGTIDDDPEYRKALESYATDNEKMTSTPETLLEEIEAKN
notes: UPF3B, human, residues 41-189 with F163A; it is named in the results; source: E. coli BL21 Rosetta2(DE3), purified (Ni-NTA, TEV, reverse IMAC, ion exchange)
In turn, B10 showed a Kd in data set [1] of 90 nM.

B11: UPF3B-41–189 Y160A + Y167A (domain or fragment, human, UniProt Q9BZI7 41-189, looked up)
chain: DRNKEKKEALSKVVIRRLPPTLTKEQLQEHLQPMPEHDYFEFFSNDTSLYPHMYARAYINFKNQEDIILFRDRFDGYVFLDNKGQEYPAIVEFAPFQKAAKKKTKKRDTKVGTIDDDPEARKFLESAATDNEKMTSTPETLLEEIEAKN
notes: UPF3B, human, residues 41-189 with Y160A and Y167A; source: E. coli BL21 Rosetta2(DE3), purified (Ni-NTA, TEV, reverse IMAC, ion exchange)
The molecule B11 gave a Kd in data set [1] of roughly 130 nM.

B12: UPF3B-41–189 Y160D + Y167D (domain or fragment, human, UniProt Q9BZI7 41-189, looked up)
chain: DRNKEKKEALSKVVIRRLPPTLTKEQLQEHLQPMPEHDYFEFFSNDTSLYPHMYARAYINFKNQEDIILFRDRFDGYVFLDNKGQEYPAIVEFAPFQKAAKKKTKKRDTKVGTIDDDPEDRKFLESDATDNEKMTSTPETLLEEIEAKN
notes: UPF3B, human, residues 41-189 with Y160D and Y167D; source: E. coli BL21 Rosetta2(DE3), purified (Ni-NTA, TEV, reverse IMAC, ion exchange)
In the case of B12, the Kd in data set [1] was roughly 130 nM.

B13: UPF3B-41–189 Y160A (domain or fragment, human, UniProt Q9BZI7 41-189, looked up)
chain: DRNKEKKEALSKVVIRRLPPTLTKEQLQEHLQPMPEHDYFEFFSNDTSLYPHMYARAYINFKNQEDIILFRDRFDGYVFLDNKGQEYPAIVEFAPFQKAAKKKTKKRDTKVGTIDDDPEARKFLESYATDNEKMTSTPETLLEEIEAKN
notes: UPF3B, human, residues 41-189 with Y160A; source: E. coli BL21 Rosetta2(DE3), purified (Ni-NTA, TEV, reverse IMAC, ion exchange)
With B13, binding in data set [1] was characterised by a dissociation constant (Kd) of 88 nM.

B14: 24mer dsDNA (dsDNA)
DNA 1: CCCTGAGCTGACGCAGCACCTGGG
DNA 2: CCCAGGTGCTGCGTCAGCTCAGGG
As to B14, the Kd in the data set with UPF3B-WT (label: 5' HEX on strand 1, blunt) was 61 nM.

The values above are taken from article PMC9177958, “Structures of nonsense-mediated mRNA decay factors UPF3B and UPF3A in complex with UPF2 reveal molecular basis for competitive binding and for neurodevelopmental disorder-causing mutation” (Nucleic Acids Research, 2022).
